From PMC11071394 come the findings set out here.

In the experiment the target is Sg Enc, Family 2B encapsulin shell protein from Streptomyces griseus (expressed in S. coelicolor A3(2)) (Streptomyces griseus). The experiment is described as follows: cryo-EM structure.

“And” between values parts separate entries of the source, which are not always exact repeats. Identical values can stand only once.

With “Sg 2-methylisoborneol synthase (2-MIBS) from Streptomyces griseus, co-expressed with Sg Enc (enzyme)”, the 2-MIBS dimers per shell (dimers per shell) is 3 and 4.

In the case of “Sg Enc, Family 2B encapsulin shell protein from Streptomyces griseus (expressed in S. coelicolor A3(2)) (natural protein)”, the stoichiometry N (as a rule, the number of molecules, sites or subunits per partner or assembly) turned out to be 60 protomers.
